Experimental data reported in patent publication US20070078092A1 (CUREGENICS, published 2007).
Square brackets hold non-standard residues; d marks the D form. Ends that are not written are not given here. * marks the point of attachment. Cholesteryloxycarbonyl = CC(C)CCC[C@@H](C)[C@H]1CC[C@H]2[C@@H]3CC=C4C[C@@H](OC(=O)*)CC[C@]4(C)[C@H]3CC[C@]12C; Lithocholoyl = C[C@H](CCC(=O)*)[C@H]1CC[C@H]2[C@@H]3CC[C@@H]4C[C@H](O)CC[C@]4(C)[C@H]3CC[C@]12C; FITC = O=C1OC2(c3ccc(O)cc3Oc3cc(O)ccc32)c2ccc(NC(=S)*)cc21; hLeu = CC(C)CC[C@H](N)C(=O)O; VitB6 = vitamin B6 moiety; Orn = NCCC[C@H](N)C(=O)O; Nva = CCC[C@H](N)C(=O)O; Dap = NC[C@H](N)C(=O)O

Tests used:
protein kinase B (PKB) [1] = experiment: cell-based or functional assay
protein kinase B (PKB) [2] = experiment: cell-based or functional assay; remark: listed apart in the source

| Binder | IC50, kinase assay PKB (protein kinase B (PKB) [1]) | IC50, in vitro kinase assay PKB (protein kinase B (PKB) [2]) |
| --- | --- | --- |
| Lithocholoyl-GRPR[Nva]Y[Dap][hLeu]-NH2 [PTR 6218] | 800 nM |  |
| {Galactopyranosyl‑O‑CO}-RPR[Nva]Y[Dap][hLeu]-NH2 [PTR 6214] | 10000 nM |  |
| {VitE‑Succinate}-RPR[Nva]YA[hLeu]-NH2 [PTR 6242] | 1000 nM |  |
| {Testosterone‑yl‑O‑CO}-RPR[Nva]Y[Dap][hLeu]-NH2 [PTR 6212] | 7000 nM |  |
| {Testosterone‑yl‑O‑CO}-RPR[Nva]YA[hLeu]-NH2 [PTR 6226] | 3000 nM |  |
| VitB6-RPR[Nva]YA[hLeu]-NH2 [PTR 6228] | 2000 nM |  |
| Lithocholoyl-RPR[Nva]Y[Dap][hLeu]-NH2 [PTR 6220] | 2000 nM |  |
| VitB6-RPR[Nva]Y[Dap][hLeu] [PTR 6232] | 1000 nM |  |

Now from value to binder:

| IC50, kinase assay PKB (protein kinase B (PKB) [1]) | IC50, in vitro kinase assay PKB (protein kinase B (PKB) [2]) | Binder |
| --- | --- | --- |
|  | > 10000 nM | H-[Orn]PR[Nva]Y[Dap][hLeu]-NH2 (SMILES CCC[C@H](NC(=O)[C@H](CCCNC(=N)N)NC(=O)[C@@H]1CCCN1C(=O)[C@@H](N)CCCN)C(=O)N[C@@H](Cc1ccc(O)cc1)C(=O)N[C@@H](CN)C(=O)N[C@@H](CCC(C)C)C(N)=O) [PTR 6380] |
|  | 2000 nM | Cholesteryloxycarbonyl-[Orn]P[Orn][Nva]Y[Dap][hLeu]-NH2 (SMILES CCC[C@H](NC(=O)[C@H](CCCN)NC(=O)[C@@H]1CCCN1C(=O)[C@H](CCCN)NC(=O)O[C@H]1CC[C@@]2(C)C(=CC[C@H]3[C@@H]4CC[C@H]([C@H](C)CCCC(C)C)[C@@]4(C)CC[C@@H]32)C1)C(=O)N[C@@H](Cc1ccc(O)cc1)C(=O)N[C@@H](CN)C(=O)N[C@@H](CCC(C)C)C(N)=O) [PTR 6386] |
|  | 200 nM | {Vitamin E‑CO‑(CH2)2‑CO}-[dK][dK][dK]RPR[Nva]Y[Dap][hLeu]-NH2 [PTR 6396] |
|  | 360 nM | Cholesteryloxycarbonyl-[Orn]PR[Nva]Y[Dap][hLeu]-NH2 (SMILES CCC[C@H](NC(=O)[C@H](CCCNC(=N)N)NC(=O)[C@@H]1CCCN1C(=O)[C@H](CCCN)NC(=O)O[C@H]1CC[C@@]2(C)C(=CC[C@H]3[C@@H]4CC[C@H]([C@H](C)CCCC(C)C)[C@@]4(C)CC[C@@H]32)C1)C(=O)N[C@@H](Cc1ccc(O)cc1)C(=O)N[C@@H](CN)C(=O)N[C@@H](CCC(C)C)C(N)=O) [PTR 6382] |
|  | 300 nM | Cholesteryloxycarbonyl-[dK][dK][dK][Orn]PR[Nva]Y[Dap][hLeu]-NH2 (SMILES CCC[C@H](NC(=O)[C@H](CCCNC(=N)N)NC(=O)[C@@H]1CCCN1C(=O)[C@H](CCCN)NC(=O)[C@@H](CCCCN)NC(=O)[C@@H](CCCCN)NC(=O)[C@@H](CCCCN)NC(=O)O[C@H]1CC[C@@]2(C)C(=CC[C@H]3[C@@H]4CC[C@H]([C@H](C)CCCC(C)C)[C@@]4(C)CC[C@@H]32)C1)C(=O)N[C@@H](Cc1ccc(O)cc1)C(=O)N[C@@H](CN)C(=O)N[C@@H](CCC(C)C)C(N)=O) [PTR 6398] |
|  | 300 nM | Cholesteryloxycarbonyl-[dK][dK][dK]KPR[Nva]Y[Dap][hLeu]-NH2 (SMILES CCC[C@H](NC(=O)[C@H](CCCNC(=N)N)NC(=O)[C@@H]1CCCN1C(=O)[C@H](CCCCN)NC(=O)[C@@H](CCCCN)NC(=O)[C@@H](CCCCN)NC(=O)[C@@H](CCCCN)NC(=O)O[C@H]1CC[C@@]2(C)C(=CC[C@H]3[C@@H]4CC[C@H]([C@H](C)CCCC(C)C)[C@@]4(C)CC[C@@H]32)C1)C(=O)N[C@@H](Cc1ccc(O)cc1)C(=O)N[C@@H](CN)C(=O)N[C@@H](CCC(C)C)C(N)=O) [PTR 6400] |
|  | 500 nM | Cholesteryloxycarbonyl-[dK][dK][dK]RPR[Nva]Y[Dap][hLeu]K(FITC)-NH2 (SMILES CCC[C@H](NC(=O)[C@H](CCCNC(=N)N)NC(=O)[C@@H]1CCCN1C(=O)[C@H](CCCNC(=N)N)NC(=O)[C@@H](CCCCN)NC(=O)[C@@H](CCCCN)NC(=O)[C@@H](CCCCN)NC(=O)O[C@H]1CC[C@@]2(C)C(=CC[C@H]3[C@@H]4CC[C@H]([C@H](C)CCCC(C)C)[C@@]4(C)CC[C@@H]32)C1)C(=O)N[C@@H](Cc1ccc(O)cc1)C(=O)N[C@@H](CN)C(=O)N[C@@H](CCC(C)C)C(=O)N[C@@H](CCCCNC(=S)Nc1ccc2c(c1)C(=O)OC21c2ccc(O)cc2Oc2cc(O)ccc21)C(N)=O) [PTR 6402] |
|  | 2000 nM | Cholesteryloxycarbonyl-RPR[Nva]Y[Dap]-OH (SMILES CCC[C@H](NC(=O)[C@H](CCCNC(=N)N)NC(=O)[C@@H]1CCCN1C(=O)[C@H](CCCNC(=N)N)NC(=O)O[C@H]1CC[C@@]2(C)C(=CC[C@H]3[C@@H]4CC[C@H]([C@H](C)CCCC(C)C)[C@@]4(C)CC[C@@H]32)C1)C(=O)N[C@@H](Cc1ccc(O)cc1)C(=O)N[C@@H](CN)C(=O)O) [PTR 6390] |
|  | 10000 nM | {HO‑CO‑(CH2)2‑CO}-[dK][dK][dK]RPR[Nva]Y[Dap][hLeu]-NH2 [PTR 6394] |
|  | > 10000 nM | H-[Orn]P[Orn][Nva]Y[Dap][hLeu]-NH2 (SMILES CCC[C@H](NC(=O)[C@H](CCCN)NC(=O)[C@@H]1CCCN1C(=O)[C@@H](N)CCCN)C(=O)N[C@@H](Cc1ccc(O)cc1)C(=O)N[C@@H](CN)C(=O)N[C@@H](CCC(C)C)C(N)=O) [PTR 6384] |
|  | 5000 nM | {Coumarin‑3‑oyl}-RPR[Nva]Y[Dap][hLeu]-NH2 [PTR 6392] |
|  | 2000 nM | Cholesteryloxycarbonyl-RP[Orn][Nva]Y[Dap][hLeu]-NH2 (SMILES CCC[C@H](NC(=O)[C@H](CCCN)NC(=O)[C@@H]1CCCN1C(=O)[C@H](CCCNC(=N)N)NC(=O)O[C@H]1CC[C@@]2(C)C(=CC[C@H]3[C@@H]4CC[C@H]([C@H](C)CCCC(C)C)[C@@]4(C)CC[C@@H]32)C1)C(=O)N[C@@H](Cc1ccc(O)cc1)C(=O)N[C@@H](CN)C(=O)N[C@@H](CCC(C)C)C(N)=O) [PTR 6388] |
